{
  "source": "paper PMC7306444",
  "assay_in_all_cases": "fluorescence anisotropy",
  "key": {"NT-hFMRP ΔKH1": {"biological_target": "NT-hFMRP ΔKH1 (Homo sapiens, UniProt Q06787 281-632)"}, "NT-hFMRP": {"biological_target": "NT-hFMRP (Homo sapiens, UniProt Q06787 218-632)"}, "GST-hFMRP RGG": {"biological_target": "GST-hFMRP RGG (Homo sapiens, UniProt Q06787 531-632)"}, "GST-hFMRP KH1": {"biological_target": "GST-hFMRP KH1 (Homo sapiens, UniProt Q06787 216-280)"}, "GST-hFMRP KH1-KH2": {"biological_target": "GST-hFMRP KH1-KH2 (Homo sapiens, UniProt Q06787 216-425)"}, "GST-hFMRP KH0-KH1-KH2": {"biological_target": "GST-hFMRP KH0-KH1-KH2 (Homo sapiens, UniProt Q06787 126-425)"}, "GST-hFMRP KH0": {"biological_target": "GST-hFMRP KH0 (Homo sapiens, UniProt Q06787 126-201)"}, "GST-hFMRP KH2": {"biological_target": "GST-hFMRP KH2 (Homo sapiens, UniProt Q06787 281-425)"}},
  "data": [
    {"binder": "UGGGGU (structured_RNA)", "note": "[UG4U]", "values": [
      {"measurement": "Kd", "setting": "NT-hFMRP ΔKH1", "result": "80 ± 7", "unit": "nM"},
      {"measurement": "Kd", "setting": "NT-hFMRP", "result": "110 ± 16", "unit": "nM"},
      {"measurement": "Kd", "setting": "GST-hFMRP RGG", "result": "210 ± 18", "unit": "nM"}
    ]},
    {"binder": "UGGACUUGGACUUGGACU (ssRNA, m6A at position 10)", "note": "[UGGm6ACU]", "values": [
      {"measurement": "Kd", "setting": "NT-hFMRP", "result": "1250 ± 610", "unit": "nM"}
    ]},
    {"binder": "CCCCCCCACUUCCCCCCU (ssRNA)", "note": "[ACUU]", "values": [
      {"measurement": "binding result", "setting": "NT-hFMRP", "result": "no binding"}
    ]},
    {"binder": "GGGGGGGGGGGGGGGGGU (structured_RNA)", "note": "[PolyG17]", "values": [
      {"measurement": "Kd", "setting": "NT-hFMRP ΔKH1", "result": "17 ± 3", "unit": "nM"},
      {"measurement": "Kd", "setting": "NT-hFMRP", "result": "14 ± 2", "unit": "nM"},
      {"measurement": "Kd", "setting": "GST-hFMRP RGG", "result": "8.6 ± 1.2", "unit": "nM"}
    ]},
    {"binder": "UUGGAUGGAUGGAUGGAU (structured_RNA)", "note": "[(UGGA)4]", "values": [
      {"measurement": "binding result", "setting": "GST-hFMRP KH1", "result": "no binding"},
      {"measurement": "binding result", "setting": "GST-hFMRP KH1-KH2", "result": "no binding"},
      {"measurement": "binding result", "setting": "GST-hFMRP KH0-KH1-KH2", "result": "no binding"},
      {"measurement": "binding result", "setting": "GST-hFMRP KH0", "result": "no binding"},
      {"measurement": "binding result", "setting": "GST-hFMRP KH2", "result": "no binding"},
      {"measurement": "Kd", "setting": "NT-hFMRP ΔKH1", "result": "840 ± 39", "unit": "nM"},
      {"measurement": "Kd", "setting": "NT-hFMRP", "result": "710 ± 50", "unit": "nM"}
    ]},
    {"binder": "CCCCCCCUGGACCCCCCU (ssRNA)", "note": "[UGGA]", "values": [
      {"measurement": "binding result", "setting": "NT-hFMRP", "result": "no binding"}
    ]},
    {"binder": "UGACGGACGGACGGACGU (structured_RNA)", "note": "[(GACG)4]", "values": [
      {"measurement": "binding result", "setting": "GST-hFMRP KH1", "result": "no binding"},
      {"measurement": "binding result", "setting": "GST-hFMRP KH1-KH2", "result": "no binding"},
      {"measurement": "binding result", "setting": "GST-hFMRP KH0-KH1-KH2", "result": "no binding"},
      {"measurement": "binding result", "setting": "GST-hFMRP KH0", "result": "no binding"},
      {"measurement": "binding result", "setting": "GST-hFMRP KH2", "result": "no binding"},
      {"measurement": "binding result", "setting": "NT-hFMRP", "result": "no binding"},
      {"measurement": "binding result", "setting": "GST-hFMRP RGG", "result": "no binding"}
    ]}
  ]
}
